Holding throughout (experiment): SPR; imaging SPR (IBIS MX96); IgG immobilised on a carboxymethyldextran sensor (CMD200M) by carbodiimide chemistry with a Continuous Flow Microspotter, printed at 300 and 150 nM; soluble receptor as analyte from 20 uM, 1:3 over 8 points; 5 min association and 5 min dissociation; equilibrium KD (Scrubber 2)
In general terms: Surface plasmon resonance follows binding to a sensor surface in real time, without labels.

In assay [1] the target is Rh7B2 IgG1 (rhesusized variant of human 7B2) (rhesus macaque (Macaca mulatta)).
The target in assay [2] is RhDH827 IgG1 (rhesusized variant of human DH827) (rhesus macaque (Macaca mulatta)).
In assay [3] the target is RhDH677.3 IgG1 (rhesusized variant of human DH677.3) (rhesus macaque (Macaca mulatta)).

The record followed here is paper PMC8770954.

One may read the Kd as the constant that tells how readily two partners part at equilibrium. Low values mean a tighter complex, high ones a looser complex.

Sequence of RhDH827 IgG1 (rhesusized variant of human DH827) (rhesus macaque (Macaca mulatta)) (heavy, as listed by the source, chain 1 of 2): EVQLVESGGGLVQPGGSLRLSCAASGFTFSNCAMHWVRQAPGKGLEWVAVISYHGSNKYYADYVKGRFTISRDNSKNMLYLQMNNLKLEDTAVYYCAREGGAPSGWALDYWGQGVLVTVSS
Sequence of RhDH827 IgG1 (rhesusized variant of human DH827) (rhesus macaque (Macaca mulatta)) (light, as listed by the source, chain 2 of 2): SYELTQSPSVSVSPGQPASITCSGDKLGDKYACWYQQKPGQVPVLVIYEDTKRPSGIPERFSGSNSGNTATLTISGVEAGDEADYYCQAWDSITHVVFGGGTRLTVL
Sequence of RhDH677.3 IgG1 (rhesusized variant of human DH677.3) (rhesus macaque (Macaca mulatta)) (heavy, as listed by the source, chain 1 of 2): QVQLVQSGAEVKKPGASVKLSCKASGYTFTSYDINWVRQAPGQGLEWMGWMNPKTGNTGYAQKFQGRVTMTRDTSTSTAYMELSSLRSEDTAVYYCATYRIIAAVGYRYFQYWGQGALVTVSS
Sequence of RhDH677.3 IgG1 (rhesusized variant of human DH677.3) (rhesus macaque (Macaca mulatta)) (light, as listed by the source, chain 2 of 2): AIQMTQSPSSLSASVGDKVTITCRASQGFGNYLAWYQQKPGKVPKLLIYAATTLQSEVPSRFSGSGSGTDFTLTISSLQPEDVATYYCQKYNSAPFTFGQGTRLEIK
Sequence of human FcγRIIIa (F158) (P08637 17-208): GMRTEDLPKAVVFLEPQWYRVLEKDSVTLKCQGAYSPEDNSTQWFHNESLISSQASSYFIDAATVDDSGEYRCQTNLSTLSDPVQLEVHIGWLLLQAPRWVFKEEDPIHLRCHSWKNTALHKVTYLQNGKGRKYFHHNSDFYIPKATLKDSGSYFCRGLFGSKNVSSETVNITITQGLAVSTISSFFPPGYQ
Sequence of Rh7B2 IgG1 (rhesusized variant of human 7B2) (rhesus macaque (Macaca mulatta)) (heavy, as listed by the source, chain 1 of 2): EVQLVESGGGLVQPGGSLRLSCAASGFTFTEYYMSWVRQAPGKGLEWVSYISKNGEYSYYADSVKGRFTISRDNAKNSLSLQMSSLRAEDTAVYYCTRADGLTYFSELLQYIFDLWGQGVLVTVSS
Sequence of Rh7B2 IgG1 (rhesusized variant of human 7B2) (rhesus macaque (Macaca mulatta)) (light, as listed by the source, chain 2 of 2): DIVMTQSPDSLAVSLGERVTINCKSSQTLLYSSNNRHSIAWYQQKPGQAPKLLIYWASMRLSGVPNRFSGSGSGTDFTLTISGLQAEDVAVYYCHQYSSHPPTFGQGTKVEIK

For the substance “human FcγRIIa (H131) (from UniProt P12318 34-217) (receptor)”, the Kd in assay [1] came to 4.4 µM; in assay [2], 3.7 µM.

Consider rhesus macaque FcγRIIa-1 (receptor), for which the Kd in assay [3] stood at 4.7 µM; in assay [1], 6 µM; in assay [2], 5.7 µM.

Consider “human FcγRIIIa (F158) (from UniProt P08637 17-208) (receptor)”, for which the Kd in assay [3] was determined as 3.8 µM; in assay [1], 3.8 µM; in assay [2] it was 4.1 µM.

In the case of “human FcγRIIb (from UniProt P31994 43-217) (receptor)”, the Kd in assay [3] was 7.9 µM; in assay [1], 8.5 µM.

Regarding rhesus macaque FcγRIIa-2 (receptor), the values for the Kd in assay [3], in assay [1] and in assay [2] were 4.9 µM, 5.5 µM and 5.5 µM, respectively.

On to rhesus macaque FcγRIIa-4 (receptor), for which the values for the equilibrium dissociation constant (Kd) in assay [3], in assay [1] and in assay [2] were 6.2 µM, 7.7 µM and 6.9 µM, respectively.

Take rhesus macaque FcγRIIb-1 (receptor): the dissociation constant Kd in assay [3], in assay [1] and in assay [2] was 3.7 µM each time.
